According to the Human Domainome abundance scans (Beltran et al. 2025):

B1: WW domain-binding protein 4, residues 8 to 43; numbered along this chain, O75554 (parent)
chain: QPKKFCDYCKCWIADNRPSVEFHERGKNHKENVAKR

Variants of: B1
Assay: abundance fitness (aPCA) (normalised: wild type 0, dead -1); higher = more abundant; growth selection in yeast, the domain comes from the species named
Conditions: Homo sapiens

Abundance fitness, by site and new letter:
F22: A 0.09, M 0.235, Y -0.224, T 0.163, K -0.129, N -0.035, L 0.051, C 0.089, G 0.111, D 0.132, I -0.33, R -0.075, S -0.01, E 0.07, P -0.061, Q 0.238, V 0.085
V20: G -0.272, H -0.031, C -0.574, P -0.512, Y -0.63, E -0.127, N -0.033, T -0.183, M -0.015, I -0.275, Q -0.254, S -0.336, W -0.189, L -0.314, D -0.591, R -0.226, A 0.05, F -0.442
D15: R -0.328, V -0.313, C -0.48, A -0.145, T -0.075, F -0.235, K -0.367, M -0.128, W -0.391, H -0.37, S -0.236, N -0.249, Q -0.262, L -0.332, G -0.09, P -0.186
H23: F -0.633, N -0.967, R -0.724, V -0.895, T -0.717, A -0.739, K -0.44, E -0.6, W -0.601, S -0.549, D -0.387, P -0.443, M -0.569, I -0.884, L -0.838, G -0.689, C -0.561
E24: A -0.303, N -0.163, M -0.451, K -0.187, D -0.372, L -0.614, F -0.181, G -0.364, P -0.915
R17: D 0.068, V 0.008, W -0.389, A 0.036, T -0.03, N -0.019, S 0.052, M 0.176, K -0.098, E -0.011, L -0.015, H -0.148, C 0.118, Y -0.235, Q -0.008, G 0.005, P 0.253
A14: W -0.338, V -0.39, S -0.343
S19: H -0.269, L -0.467, E -0.245, K -0.379, N -0.204, V -0.451, D -0.13, F -0.797, C -0.516, R -0.574, A -0.058, G -0.3, W -0.672, Q -0.218, T -0.079, M -0.07
N16: P 0.018, W -0.268, Q -0.073, V -0.14, Y -0.06, L -0.175, G 0.151, H -0.105, R -0.141, S -0.177, F -0.143, K 0.102, A 0.135, D -0.233, M 0.024, T 0.185, E 0.027, I 0.321
E21: N -0.312, A -0.163, S -0.167, P -0.467, F -0.437, Q -0.074, I -0.71, L -0.19, V -0.289, W -0.295, M -0.332, T -0.034, H -0.475, D -0.15, R -0.05, C -0.36, K 0.007
P18: H -0.124, Y -0.194, E -0.048, D -0.388, K -0.175, F -0.431, C -0.113, W -0.522, G -0.179, Q -0.12, T -0.381, I -0.349, N -0.177, V -0.198, R -0.162, A -0.108, S -0.192, M -0.002, L -0.236
